We go through 1 molecule from paper PMC2737813 (Cell host & microbe, 2009).

This test deals with MBP-TRIM25-FLAG (human, UniProt Q14258 1-630). Nature of the test: pull-down.
Chain of MBP-TRIM25-FLAG (Q14258 whole entry): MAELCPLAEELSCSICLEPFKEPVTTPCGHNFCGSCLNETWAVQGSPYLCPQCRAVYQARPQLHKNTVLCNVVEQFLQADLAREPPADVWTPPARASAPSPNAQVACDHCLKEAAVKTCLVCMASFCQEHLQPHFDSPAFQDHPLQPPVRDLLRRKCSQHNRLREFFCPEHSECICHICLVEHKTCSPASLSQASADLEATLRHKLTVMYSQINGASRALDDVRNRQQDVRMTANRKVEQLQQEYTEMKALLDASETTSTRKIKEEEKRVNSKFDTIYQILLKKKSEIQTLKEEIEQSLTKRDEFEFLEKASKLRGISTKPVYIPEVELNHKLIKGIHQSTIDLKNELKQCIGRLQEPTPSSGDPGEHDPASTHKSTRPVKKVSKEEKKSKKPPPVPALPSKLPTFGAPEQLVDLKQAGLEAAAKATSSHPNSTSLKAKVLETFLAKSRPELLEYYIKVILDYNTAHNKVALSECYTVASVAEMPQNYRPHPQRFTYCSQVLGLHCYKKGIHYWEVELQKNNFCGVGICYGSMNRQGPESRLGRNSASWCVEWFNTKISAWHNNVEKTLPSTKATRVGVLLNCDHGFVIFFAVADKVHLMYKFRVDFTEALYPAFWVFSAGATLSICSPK

B1: GST-PR8 wt NS1 (natural protein)
chain: MDPNTVSSFQVDCFLWHVRKRVADQELGDAPFLDRLRRDQKSLRGRGSTLGLDIETATRAGKQIVERILKEESDEALKMTMASVPASRYLTDMTLEEMSRDWSMLIPKQKVAGPLCIRMDQAIMDKNIILKANFSVIFDRLETLILLRAFTEEGAIVGEISPLPSLPGHTAEDVKNAVGVLIGGLEWNDNTVRVSETLQRFAWRSSNENGRPPLTPKQKREMAGTIRSEV
On to B1, for which the binding result is recorded as “binds”.
